Measurements published in publication PMC9343077 (Research, 2022).

Target: T1, SARS-CoV-2 spike RBD (Arg319-Asn532) fused to a His tag (SARS-CoV-2, UniProt P0DTC2)
T1 construct: also called SARS-CoV-2 spike RBD-His; SARS-CoV-2-RBD-His; not shown: His tag, N-terminal, kept
Test: radioligand binding
Conditions: both partners purified

B1: ^68Ga-Nb1159 (nanobody Nb11-59 conjugated to NOTA and radiolabeled with ^68Ga) (VHH)
VHH: EVQLQESGGGLVQPGGSLRLSCAASGFTFSSYDMSWVRQAPGKGLEWVSAINSSGGSTYYADSVKGRFTISRDNAKNTLYLQMNSLKTEDTAVYYCAPSQTYGGSWYWDPIGDWGQGTLVTVSS
notes: also called ^68Ga-NOTA-Nb1159; NOTA-Nb1159 (before labelling)
- Kd: 25.5 nM
